We go through two compounds from PMC8968665, “Verteporfin is a substrate-selective γ-secretase inhibitor that binds the amyloid precursor protein transmembrane domain” (The Journal of Biological Chemistry, 2022).

Assay [1] deals with C99 (C-terminal 99 amino acid fragment of the human amyloid precursor protein), as used for IM-MS (human) (UniProt P05067). Nature of the assay: native MS; native ion mobility-mass spectrometry (IM-MS); 20 uM C99 in 100X CMC LMPG or DDMB micelles, 200 mM ammonium acetate pH 4.5; DMSO or 0-50 uM verteporfin, incubated in the dark overnight; micelles dissociated in the instrument.

Assay [2] deals with T1, γ-secretase cleavage of C100-Flag (C99) (Homo sapiens, UniProt P05067).
T1 construct: C100 is C99 with an added N-terminal Met residue; made in house
Kind of assay: γ-Secretase assay, C100-FLAG cleavage, AICD by anti-Flag Western blot. In kind it is biochemical. As to conditions: 30 nM LY411,575, 2 µM C100-Flag, 1 nM γ-secretase, Fig. S6A lane 7. The protocol: The γ-secretase-dependent proteolysis assays with both substrates (C100-FLAG and HexaHis Notch 1 JM/TM) were performed in a weak zwitterionic detergent (CHAPSO, 3-[(3- cholamidopropyl)dimethylammonio]-2-hydroxy-1-propanesulfonate) solubilized conditions ([79], [80]). C100 is C99 with an added N-terminal Met residue. […] Proteolytic reactions were initiated by adding purified substrates (either C100-FLAG(79) or HexaHis-Notch 1 JM/TM(77)) and incubating at 37 °C (16 h for C100Flag and 4 h for HexaHis-Notch 1 JM/TM). Reactions were quenched with SDS, and the cleaved intracellular domain products (AICD-FLAG released from C100-FLAG or truncated intracellular domain (NICD) released from the proteolysis of Hexa-His Notch 1 JM/TM) were visualized by Western blot using specific primary antibodies, anti-FLAG antibody for FLAG-tagged AICD, and neoepitope-specific anti-V1744 antibody for NICD ([80], [83], [84]).

Chain of C99 (C-terminal 99 amino acid fragment of the human amyloid precursor protein), as used for IM-MS (P05067 672-770): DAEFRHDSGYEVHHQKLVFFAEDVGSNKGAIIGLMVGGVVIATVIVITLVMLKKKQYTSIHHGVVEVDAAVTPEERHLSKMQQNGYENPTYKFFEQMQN
T1 sequence (P05067 672-770 limits assumed): as the sequence (P05067 672-770) above

In assay [1], “C99 (C-terminal 99 amino acid fragment of the human amyloid precursor protein), as used for IM-MS (from UniProt P05067 672-770) (domain or fragment)” returned a stoichiometry N of 2.
As to `C[C@H](NC(=O)[C@@H](O)c1cc(F)cc(F)c1)C(=O)N[C@@H]1C(=O)N(C)c2ccccc2-c2ccccc21` [LY411,575], the “C100-Flag cleavage efficiency (Western blot)” value in assay [2] is given as “fully”.
